The nature of the series: Poly(ADP-ribose) polymerase activity assay (32P-NAD+, SDS-PAGE, autoradiography). The format is biochemical. Conditions: 250 ng protein, 10 min at room temperature, 2.5 μM unlabeled NAD+. The procedure: For poly(ADP-ribose) polymerase activity assays, reagents were obtained from Sigma unless otherwise indicated. PARP1A/TANK2B (250 ng) protein was incubated for 10 min at room temperature in Assay buffer (total volume of 20 μL) [100 mM Tris-HCl, pH 8.0, 10 mM MgCl2, 10% glycerol, 1.5 mM DTT (Boehringer Mannheim/Roche Molecular Biochemicals), 2.5 μM unlabeled NAD^+, 16.7 μg/mL E. coli Strain B DNA, and 0.33 μCi γ-[^32P]-NAD^+ (NEN, Boston, Mass.). Reactions were stopped by boiling in SDS running buffer and separated by SDS-polyacrylamide gel electrophoresis (SDS-PAGE). Autoradiography was used to visualize labeled protein. Addition of poly(ADP-ribose) polymers to protein substrate results in an increase in molecular weight of the protein, and consequently causes the protein to run higher on SDS PAGE. Also, the level of poly(ADP-ribose) polymers added to the protein substrate can vary with each single protein molecule, resulting in labeled proteins with different molecular weights, which appears on the autoradiography film as a ladder or smear [for example, see Smith et al. Science 282:2484-7 (1998)]. […] The PARP1A/TANK2B poly(ADP-ribose) polymerase reaction produced a ladder of labeled protein from approximately 136 kDa to 250 kDa.

For the substance “PARP1A/TANK2B: Fusion protein containing aa 1-662 of PARP1 fused upstream of aa 996-1385 of TANK2 (SEQ ID NO:178)”, the “intrinsic poly(ADP-ribose) polymerase activity” value is given as “possessed intrinsic poly(ADP-ribose) polymerase activity”.

For the origin of these results see patent US20030190739A1, “Tankyrase2 materials and methods” (priority 1999, published 2003).
